{"source": "paper PMC2712087", "about": "(PLoS Pathogens, 2009)", "binders": {"B1": {"name": "purified recombinant BZLF1 protein (natural protein)", "chain": "MMDPNSTSEDVKFTPDPYQVPFVQAFDQATRVYQDLGGPSQAPLPCVLWPVLPEPLPQGQLTAYHVSTAPTGSWFSAPQPAPENAYQAYAAPQLFPVSDITQNQQTNQAGGEAPQPGDNSTVQTAAAVVFACPGANQGQQLADIGVPQPAPVAAPARRTRKPQQPESLEECDSELEIKRYKNRVASRKCRAKFKQLLQHYREVAAAKSSENDRLRLLLKQMCPSLDVDSIIPRTPDVLHEDLLNF", "notes": "also called EBV BZLF1 protein; source: Hi-Five cells infected with recombinant baculovirus AcBZLF1, purified (extracted from nuclei with 0.6 M NaCl; purity more than 90%)"}}, "key": {"[1]": {"molecular_target": "T1, FLAG-p53 wild type, from 293T cells (human, UniProt P04637 1-393)", "T1 construct": "also called FLAG-p53 (WT); p53 protein (WT); source: 293T, transfected, with or without ionizing radiation (20 Gy), purified on anti-FLAG antibody resin", "assay": "pull-down", "conditions": "both partners purified"}, "[2]": {"molecular_target": "T2, His-p53 wild-type (human, UniProt P04637 1-393)", "T2 construct": "also called His-tagged p53; WT p53; source: E. coli, purified (Ni-NTA agarose); not shown: His, N-terminal, kept", "assay": "pull-down", "conditions": "both partners purified"}}, "data": [{"binder": "B1", "values": [{"measurement": "binding result", "setting": "[1]", "value": "binds"}, {"measurement": "binding result", "setting": "[2]", "value": "binds"}]}]}
